Reference: patent US20050100554A1 (published 2005)

Legend:
[1] = target: T1, Human Papillomavirus 1a E1 (Human Papillomavirus 1a, UniProt P03111 1-612); assay: Y2H; INT ID 579
T1 construct: also called HPV 1a E1; cbe_552975
T1 sequence: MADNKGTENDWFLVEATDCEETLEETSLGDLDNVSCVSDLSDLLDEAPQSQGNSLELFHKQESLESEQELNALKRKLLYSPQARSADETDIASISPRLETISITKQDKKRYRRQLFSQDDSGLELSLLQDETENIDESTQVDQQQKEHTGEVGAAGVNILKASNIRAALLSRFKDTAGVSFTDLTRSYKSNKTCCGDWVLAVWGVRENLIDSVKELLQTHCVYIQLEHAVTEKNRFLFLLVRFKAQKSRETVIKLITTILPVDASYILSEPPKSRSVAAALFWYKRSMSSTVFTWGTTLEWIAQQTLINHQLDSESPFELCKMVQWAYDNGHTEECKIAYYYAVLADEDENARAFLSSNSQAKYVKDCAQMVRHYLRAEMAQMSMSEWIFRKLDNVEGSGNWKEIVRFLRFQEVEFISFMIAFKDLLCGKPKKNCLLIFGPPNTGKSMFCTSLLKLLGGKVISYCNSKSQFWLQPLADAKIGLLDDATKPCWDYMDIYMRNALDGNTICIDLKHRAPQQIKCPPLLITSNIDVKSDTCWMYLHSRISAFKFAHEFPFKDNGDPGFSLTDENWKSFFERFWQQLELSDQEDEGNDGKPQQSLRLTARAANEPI

[2] = target: T1, Human Papillomavirus 1a E1; assay: Y2H; INT ID 581
[3] = target: T1, Human Papillomavirus 1a E1; assay: Y2H; INT ID 582
[4] = target: T1, Human Papillomavirus 1a E1; assay: Y2H; INT ID 583

B1: hypothetical protein FLJ13236 (other)
chain: MAKGLLVTYALWAVGGPAGLHHLYLGRDSHALLWMLTLGGGGLGWLWEFWKLPSFVAQANRAQGQRQSPRGVTPPLSPIRFAAQVIVGIYFGLVALISLSSMVNFYIVALPLAVGLGVLLVAAVGNQTSDFKNTLGSAFLTSPIFYGRPIAILPISVAASITAQRHRRYKALVASEPLSVRLYRLGLAYLAFTGPLAYSALCNTAATLSYVAETFGSFLNWFSFFPLLGRLMEFVLLLPYRIWRLLMGETGFNSSCFQEWAKLYEFVHSFQDEKRQLAYQVLGLSEGATNEEIHRSYQELVKVWHPDHNLDQTEEAQRHFLEIQAAYEVLSQPRKPWGSRR
notes: also called cbe_71919
- binding result [1]: binds

B2: interferon regulatory factor 1 (other)
chain: MPITRMRMRPWLEMQINSNQIPGLIWINKEEMIFQIPWKHAAKHGWDINKDACLFRSWAIHTGRYKAGEKEPDPKTWKANFRCAMNSLPDIEEVKDQSRNKGSSAVRVYRMLPPLTKNQRKERKSKSSRDAKSKAKRKSCGDSSPDTFSDGLSSSTLPDDHSSYTVPGYMQDLEVEQALTPALSPCAVSSTLPDWHIPVEVVPDSTSDLYNFQVSPMPSTSEATTDEDEEGKLPEDIMKLLEQSEWQPTNVDGKGYLLNEPGVQPTSVYGDFSCKEEPEIDSPGGDIGLSLQRVFTDLKNMDATWLDSLLTPVRLPSIQAIPCAP
notes: also called IRF1; cbe_3001381
- binding result [2]: binds

B3: TRAF interacting protein (other)
chain: MPIRALCTICSDFFDHSRDVAAIHCGHTFHLQCLIQSFETAPSRTCPQCRIQVGKRTIINKLFFDLAQEEENVLDREFLKNELDNVRAQLSQKDKEKRDSQVIIDTLRDTLEERNATVVSLQQALGKAEMLCSTLKKQMKYLEQQQDETKQAQEEAGRLRSKMKTMEQIELLLQSQLPEVEEMIRDMGVGQSAVEQLAVYCVSLKKEYENLKEARKASGEVADKLRKDLFSSRSKLQTVYSELDQAKLELKSAQKDLQSADKEIMSLKKKLTMLQETLNLPPVASETVDRLVLESPAPVEVNLKLRRPSFRDDIDLNATFDVDTPPARPSSSQHGYYEKLCLEKSHSPIQDVPKKICKGPRKESQLSLGGQSCAGEPDEELVGAFPIFVRNAILGQKQPKRPRSESSCSKDVVRTGFDGLGGRTKFIQPTDTVMIRPLPVKPKTKVKQRVRVKTVPSLFQAKLDTFLWS
notes: also called TRIP; cbe_3340492
- binding result [3]: binds

B4: TDE1 (other)
chain: MGAVLGVFSLASWVPCLCSGASCLLCSCCPNSKNSTVTRLIYAFILLLSTVVSYIMQRKEMETYLKKIPGFCEGGFKIHEADINADKDCDVLVGYKAVYRISFAMAIFFFVFSLLMFKVKTSKDLRAAVHNGFWFFKIAALIGIMVGSFYIPGGYFSSVWFVVGMIGAALFILIQLVLLVDFAHSWNESWVNRMEEGNPRLWYAALLSFTSAFYILSIICVGLLYTYYTKPDGCTENKFFISINLILCVVASIISIHPKIQEHQPRSGLLQSSLITLYTMYLTWSAMSNEPDRSCNPNLMSFITRITAPTLAPGNSTAVVPTPTPPSKSGSLLDSDNFIGLFVFVLCLLYSSIRTSTNSQVDKLTLSGSDSVILGDTTTSGASDEEDGQPRRAVDNEKEGVQYSYSLFHLMLCLASLYIMMTLTSWYSPDAKFQSMTSKWPAVWVKISSSWVCLLLYVWTLVAPLVLTSRDFS
notes: also called cbe_3926508
- binding result [4]: binds
